Reference: the Human Domainome abundance scans (Beltran et al. 2025)
± gives the uncertainty stated by the source.

Assay: abundance fitness (aPCA) (normalised: wild type 0, dead -1); higher = more abundant; growth selection in yeast, the domain comes from the species named
Conditions: Homo sapiens
“E3 ubiquitin-protein ligase NEDD4-like T209S, Q96PU5” gave an abundance fitness of 0.036 ± 0.073.
In the case of “E3 ubiquitin-protein ligase NEDD4-like T209V, Q96PU5”, the abundance fitness is reported as -0.079 ± 0.067.
Substance “E3 ubiquitin-protein ligase NEDD4-like T209Y, Q96PU5” has an abundance fitness of -0.649 ± 0.11.
With “E3 ubiquitin-protein ligase NEDD4-like T218A, Q96PU5” the abundance fitness was -0.045 ± 0.057.
For “E3 ubiquitin-protein ligase NEDD4-like T218C, Q96PU5”, the abundance fitness was -0.031 ± 0.076.
Work on “E3 ubiquitin-protein ligase NEDD4-like T218D, Q96PU5” yielded an abundance fitness of -0.347 ± 0.096.
Work on “E3 ubiquitin-protein ligase NEDD4-like T218E, Q96PU5” yielded an abundance fitness of -0.122 ± 0.062.
With “E3 ubiquitin-protein ligase NEDD4-like T218F, Q96PU5” the abundance fitness was -0.028 ± 0.084.
In the case of “E3 ubiquitin-protein ligase NEDD4-like T218G, Q96PU5”, the abundance fitness is reported as -0.146 ± 0.061.
For “E3 ubiquitin-protein ligase NEDD4-like T218H, Q96PU5”, the abundance fitness was -0.017 ± 0.1.
“E3 ubiquitin-protein ligase NEDD4-like T218I, Q96PU5” gave an abundance fitness of -0.118 ± 0.096.
Work on “E3 ubiquitin-protein ligase NEDD4-like T218K, Q96PU5” yielded an abundance fitness of -0.06 ± 0.072.
Work on “E3 ubiquitin-protein ligase NEDD4-like T218M, Q96PU5” yielded an abundance fitness of -0.128 ± 0.089.
In the case of “E3 ubiquitin-protein ligase NEDD4-like T218N, Q96PU5”, the abundance fitness is reported as -0.244 ± 0.11.
In the case of “E3 ubiquitin-protein ligase NEDD4-like T218Q, Q96PU5”, the abundance fitness is reported as -0.218 ± 0.095.
With “E3 ubiquitin-protein ligase NEDD4-like T218R, Q96PU5” the abundance fitness was -0.184 ± 0.058.
In the case of “E3 ubiquitin-protein ligase NEDD4-like T218S, Q96PU5”, the abundance fitness is reported as -0.236 ± 0.07.
“E3 ubiquitin-protein ligase NEDD4-like T218V, Q96PU5” showed an abundance fitness of 0.092 ± 0.056.
With “E3 ubiquitin-protein ligase NEDD4-like T218W, Q96PU5” the abundance fitness was -0.084 ± 0.075.
In the case of “E3 ubiquitin-protein ligase NEDD4-like T218Y, Q96PU5”, the abundance fitness is reported as 0.211 ± 0.1.
In the case of “E3 ubiquitin-protein ligase NEDD4-like T219A, Q96PU5”, the abundance fitness is reported as -0.28 ± 0.057.
“E3 ubiquitin-protein ligase NEDD4-like T219C, Q96PU5” showed an abundance fitness of -0.137 ± 0.09.
“E3 ubiquitin-protein ligase NEDD4-like T219D, Q96PU5” showed an abundance fitness of -0.595 ± 0.085.
In the case of “E3 ubiquitin-protein ligase NEDD4-like T219E, Q96PU5”, the abundance fitness is reported as -0.145 ± 0.068.
“E3 ubiquitin-protein ligase NEDD4-like T219F, Q96PU5” gave an abundance fitness of -0.577 ± 0.075.
In the case of “E3 ubiquitin-protein ligase NEDD4-like T219G, Q96PU5”, the abundance fitness is reported as -0.632 ± 0.055.
Work on “E3 ubiquitin-protein ligase NEDD4-like T219H, Q96PU5” yielded an abundance fitness of -0.232 ± 0.099.
“E3 ubiquitin-protein ligase NEDD4-like T219I, Q96PU5” showed an abundance fitness of -0.56 ± 0.081.
In the case of “E3 ubiquitin-protein ligase NEDD4-like T219K, Q96PU5”, the abundance fitness is reported as -0.157 ± 0.099.
“E3 ubiquitin-protein ligase NEDD4-like T219L, Q96PU5” showed an abundance fitness of -0.623 ± 0.076.
Work on “E3 ubiquitin-protein ligase NEDD4-like T219M, Q96PU5” yielded an abundance fitness of -0.285 ± 0.091.
“E3 ubiquitin-protein ligase NEDD4-like T219N, Q96PU5” showed an abundance fitness of -0.221 ± 0.067.
For “E3 ubiquitin-protein ligase NEDD4-like T219P, Q96PU5”, the abundance fitness was -0.38 ± 0.1.
With “E3 ubiquitin-protein ligase NEDD4-like T219R, Q96PU5” the abundance fitness was -0.3 ± 0.057.
“E3 ubiquitin-protein ligase NEDD4-like T219S, Q96PU5” showed an abundance fitness of -0.189 ± 0.086.
“E3 ubiquitin-protein ligase NEDD4-like T219V, Q96PU5” gave an abundance fitness of -0.348 ± 0.063.
With “E3 ubiquitin-protein ligase NEDD4-like T219W, Q96PU5” the abundance fitness was -0.598 ± 0.075.
“E3 ubiquitin-protein ligase NEDD4-like T219Y, Q96PU5” showed an abundance fitness of -0.451 ± 0.089.
Substance “E3 ubiquitin-protein ligase NEDD4-like V203A, Q96PU5” has an abundance fitness of 0.023 ± 0.063.
Substance “E3 ubiquitin-protein ligase NEDD4-like V203C, Q96PU5” has an abundance fitness of -0.066 ± 0.097.
In the case of “E3 ubiquitin-protein ligase NEDD4-like V203D, Q96PU5”, the abundance fitness is reported as -0.143 ± 0.073.
For “E3 ubiquitin-protein ligase NEDD4-like V203E, Q96PU5”, the abundance fitness was -0.033 ± 0.068.
In the case of “E3 ubiquitin-protein ligase NEDD4-like V203F, Q96PU5”, the abundance fitness is reported as -0.055 ± 0.069.
In the case of “E3 ubiquitin-protein ligase NEDD4-like V203G, Q96PU5”, the abundance fitness is reported as -0.424 ± 0.053.
For “E3 ubiquitin-protein ligase NEDD4-like V203H, Q96PU5”, the abundance fitness was 0.016 ± 0.11.
In the case of “E3 ubiquitin-protein ligase NEDD4-like V203I, Q96PU5”, the abundance fitness is reported as -0.293 ± 0.097.
Work on “E3 ubiquitin-protein ligase NEDD4-like V203K, Q96PU5” yielded an abundance fitness of -0.064 ± 0.078.
“E3 ubiquitin-protein ligase NEDD4-like V203M, Q96PU5” gave an abundance fitness of -0.096 ± 0.059.
Substance “E3 ubiquitin-protein ligase NEDD4-like V203P, Q96PU5” has an abundance fitness of -0.368 ± 0.07.
With “E3 ubiquitin-protein ligase NEDD4-like V203Q, Q96PU5” the abundance fitness was 0.019 ± 0.093.
For “E3 ubiquitin-protein ligase NEDD4-like V203R, Q96PU5”, the abundance fitness was 0.007 ± 0.054.
In the case of “E3 ubiquitin-protein ligase NEDD4-like V203S, Q96PU5”, the abundance fitness is reported as -0.144 ± 0.066.
In the case of “E3 ubiquitin-protein ligase NEDD4-like V203T, Q96PU5”, the abundance fitness is reported as -0.115 ± 0.092.
In the case of “E3 ubiquitin-protein ligase NEDD4-like V203W, Q96PU5”, the abundance fitness is reported as -0.347 ± 0.078.
For “E3 ubiquitin-protein ligase NEDD4-like V203Y, Q96PU5”, the abundance fitness was -0.227 ± 0.11.
For “E3 ubiquitin-protein ligase NEDD4-like V212A, Q96PU5”, the abundance fitness was -0.102 ± 0.069.
“E3 ubiquitin-protein ligase NEDD4-like V212C, Q96PU5” showed an abundance fitness of -0.097 ± 0.076.
For “E3 ubiquitin-protein ligase NEDD4-like V212D, Q96PU5”, the abundance fitness was -0.458 ± 0.094.
Work on “E3 ubiquitin-protein ligase NEDD4-like V212E, Q96PU5” yielded an abundance fitness of -0.068 ± 0.057.
Substance “E3 ubiquitin-protein ligase NEDD4-like V212G, Q96PU5” has an abundance fitness of -0.417 ± 0.053.
With “E3 ubiquitin-protein ligase NEDD4-like V212H, Q96PU5” the abundance fitness was -0.207 ± 0.12.
“E3 ubiquitin-protein ligase NEDD4-like V212I, Q96PU5” gave an abundance fitness of -0.356 ± 0.12.
In the case of “E3 ubiquitin-protein ligase NEDD4-like V212K, Q96PU5”, the abundance fitness is reported as -0.974 ± 0.18.
Substance “E3 ubiquitin-protein ligase NEDD4-like V212M, Q96PU5” has an abundance fitness of -0.076 ± 0.076.
Work on “E3 ubiquitin-protein ligase NEDD4-like V212N, Q96PU5” yielded an abundance fitness of -0.47 ± 0.15.
With “E3 ubiquitin-protein ligase NEDD4-like V212P, Q96PU5” the abundance fitness was -0.485 ± 0.11.
In the case of “E3 ubiquitin-protein ligase NEDD4-like V212R, Q96PU5”, the abundance fitness is reported as -0.196 ± 0.057.
Substance “E3 ubiquitin-protein ligase NEDD4-like V212S, Q96PU5” has an abundance fitness of -0.347 ± 0.071.
Work on “E3 ubiquitin-protein ligase NEDD4-like V212T, Q96PU5” yielded an abundance fitness of -0.225 ± 0.094.
In the case of “E3 ubiquitin-protein ligase NEDD4-like V212W, Q96PU5”, the abundance fitness is reported as -0.183 ± 0.083.
“E3 ubiquitin-protein ligase NEDD4-like V212Y, Q96PU5” showed an abundance fitness of -0.003 ± 0.15.
With “E3 ubiquitin-protein ligase NEDD4-like V229A, Q96PU5” the abundance fitness was -0.001 ± 0.064.
In the case of “E3 ubiquitin-protein ligase NEDD4-like V229C, Q96PU5”, the abundance fitness is reported as -0.203 ± 0.084.
“E3 ubiquitin-protein ligase NEDD4-like V229D, Q96PU5” gave an abundance fitness of 0.019 ± 0.068.
“E3 ubiquitin-protein ligase NEDD4-like V229E, Q96PU5” showed an abundance fitness of 0.003 ± 0.077.
With “E3 ubiquitin-protein ligase NEDD4-like V229F, Q96PU5” the abundance fitness was -0.057 ± 0.099.
Work on “E3 ubiquitin-protein ligase NEDD4-like V229G, Q96PU5” yielded an abundance fitness of 0.036 ± 0.057.
In the case of “E3 ubiquitin-protein ligase NEDD4-like V229H, Q96PU5”, the abundance fitness is reported as -0.263 ± 0.1.
With “E3 ubiquitin-protein ligase NEDD4-like V229I, Q96PU5” the abundance fitness was -0.013 ± 0.099.
Work on “E3 ubiquitin-protein ligase NEDD4-like V229K, Q96PU5” yielded an abundance fitness of -0.111 ± 0.095.
For “E3 ubiquitin-protein ligase NEDD4-like V229L, Q96PU5”, the abundance fitness was 0.057 ± 0.056.
“E3 ubiquitin-protein ligase NEDD4-like V229N, Q96PU5” gave an abundance fitness of -0.007 ± 0.11.
“E3 ubiquitin-protein ligase NEDD4-like V229Q, Q96PU5” gave an abundance fitness of -0.133 ± 0.1.
“E3 ubiquitin-protein ligase NEDD4-like V229R, Q96PU5” gave an abundance fitness of -0.016 ± 0.061.
“E3 ubiquitin-protein ligase NEDD4-like V229S, Q96PU5” gave an abundance fitness of 0.033 ± 0.067.
“E3 ubiquitin-protein ligase NEDD4-like V229T, Q96PU5” gave an abundance fitness of 0.018 ± 0.065.
Work on “E3 ubiquitin-protein ligase NEDD4-like V229W, Q96PU5” yielded an abundance fitness of -0.164 ± 0.06.
“E3 ubiquitin-protein ligase NEDD4-like W199A, Q96PU5” gave an abundance fitness of -0.535 ± 0.086.
For “E3 ubiquitin-protein ligase NEDD4-like W199C, Q96PU5”, the abundance fitness was -0.25 ± 0.098.
“E3 ubiquitin-protein ligase NEDD4-like W199D, Q96PU5” showed an abundance fitness of -0.744 ± 0.1.
In the case of “E3 ubiquitin-protein ligase NEDD4-like W199E, Q96PU5”, the abundance fitness is reported as -0.275 ± 0.083.
With “E3 ubiquitin-protein ligase NEDD4-like W199F, Q96PU5” the abundance fitness was 0.004 ± 0.079.
“E3 ubiquitin-protein ligase NEDD4-like W199G, Q96PU5” gave an abundance fitness of -0.413 ± 0.063.
Work on “E3 ubiquitin-protein ligase NEDD4-like W199I, Q96PU5” yielded an abundance fitness of -0.462 ± 0.13.
Work on “E3 ubiquitin-protein ligase NEDD4-like W199L, Q96PU5” yielded an abundance fitness of -0.502 ± 0.058.
